Our source for the Kd values is publication PMC8325321.

The target in this assay is recombinant importin α2-His (Laodelphax striatellus). The assay is described as follows: MST.

For the substance NP-GST (natural protein), the Kd was determined as 9.1 µM.

One may read the Kd as the free concentration of one partner at which half of the binding sites on the other are occupied at equilibrium, for simple one-to-one binding.
